This is an account of results in PMC7261175, “A splice site-sensing conformational switch in U2AF2 is modulated by U2AF1 and its recurrent myelodysplasia-associated mutation” (Nucleic Acids Research, 2019).

The target of series [1] is T1, His6SumoMBP-U2AF1;U2AF2 Cy3/Cy5 (human;human, UniProt Q01081;P26368-2 1-188;85-342, C67S|A181C;C305A;Q324C). Briefly: smFRET titration; protein tethered; from 0.4 and 0.6 FRET peak areas; Anisotropy: 150 mM NaCl, 25 mM HEPES pH 6.8, 0.5 mM TCEP, 3% glycerol, 20 uM ZnCl2, 0.2 U/ul SUPERase-In; smFRET: 25 mM HEPES pH 7.0, 150 mM KCl, 0.01% octaethylene glycol monododecyl ether, 0.2 mM TCEP, 6 mM BME, 1.5 mM Trolox, oxygen scavenger, room temperature, excess U2AF1 (1000 nM) with heterodimer. To be noted: protein: recombinant;recombinant; tags: N-terminal His6-SUMO-MBP with AAA linker; C-terminal extra Ala;GST cleaved; Cy3/Cy5 on C181 and C324; copies: 1;1.

Series [2] deals with T1, His6SumoMBP-U2AF1;U2AF2 Cy3/Cy5. Briefly: smFRET; RNA tethered; ~70% closed; Anisotropy: 150 mM NaCl, 25 mM HEPES pH 6.8, 0.5 mM TCEP, 3% glycerol, 20 uM ZnCl2, 0.2 U/ul SUPERase-In; smFRET: 25 mM HEPES pH 7.0, 150 mM KCl, 0.01% octaethylene glycol monododecyl ether, 0.2 mM TCEP, 6 mM BME, 1.5 mM Trolox, oxygen scavenger, room temperature, excess U2AF1 (1000 nM) with heterodimer. To be noted: protein: recombinant;recombinant; tags: N-terminal His6-SUMO-MBP with AAA linker; C-terminal extra Ala;GST cleaved; Cy3/Cy5 on C181 and C324; copies: 1;1; label: biotin on annealed DNA; stem-loop.

Series [3] concerns the target T2, His6SumoMBP-U2AF1 S34F;U2AF2 Cy3/Cy5 (human;human, UniProt Q01081;P26368-2 1-188;85-342, S34F;C67S|A181C;C305A;Q324C). Briefly: smFRET; RNA tethered; similar to WT; Anisotropy: 150 mM NaCl, 25 mM HEPES pH 6.8, 0.5 mM TCEP, 3% glycerol, 20 uM ZnCl2, 0.2 U/ul SUPERase-In; smFRET: 25 mM HEPES pH 7.0, 150 mM KCl, 0.01% octaethylene glycol monododecyl ether, 0.2 mM TCEP, 6 mM BME, 1.5 mM Trolox, oxygen scavenger, room temperature, excess U2AF1 (1000 nM) with heterodimer. To be noted: protein: recombinant;recombinant, tags: N-terminal His6-SUMO-MBP with AAA linker, C-terminal extra Ala;GST cleaved, Cy3/Cy5 on C181 and C324, copies: 1;1, label: biotin on annealed DNA.

The target of series [4] is T3, U2AF2 Cy3/Cy5 isolated subunit (human, UniProt P26368-2 113-342, A181C;C305A;Q324C). Briefly: smFRET; RNA tethered; Anisotropy: 150 mM NaCl, 25 mM HEPES pH 6.8, 0.5 mM TCEP, 3% glycerol, 20 uM ZnCl2, 0.2 U/ul SUPERase-In; smFRET: 25 mM HEPES pH 7.0, 150 mM KCl, 0.01% octaethylene glycol monododecyl ether, 0.2 mM TCEP, 6 mM BME, 1.5 mM Trolox, oxygen scavenger, room temperature, excess U2AF1 (1000 nM) with heterodimer. To be noted: protein: recombinant, tags: His6 and T7 tags, label: biotin on annealed DNA, stem-loop.

In series [5] the target is T3, U2AF2 Cy3/Cy5 isolated subunit. Briefly: smFRET; RNA tethered; open and closed; Anisotropy: 150 mM NaCl, 25 mM HEPES pH 6.8, 0.5 mM TCEP, 3% glycerol, 20 uM ZnCl2, 0.2 U/ul SUPERase-In; smFRET: 25 mM HEPES pH 7.0, 150 mM KCl, 0.01% octaethylene glycol monododecyl ether, 0.2 mM TCEP, 6 mM BME, 1.5 mM Trolox, oxygen scavenger, room temperature, excess U2AF1 (1000 nM) with heterodimer. To be noted: protein: recombinant; tags: His6 and T7 tags; Cy3/Cy5; label: biotin on annealed DNA.

Series [6] concerns the target T1, His6SumoMBP-U2AF1;U2AF2 Cy3/Cy5. Described as above. Conditions: protein: recombinant;recombinant; tags: N-terminal His6-SUMO-MBP with AAA linker; C-terminal extra Ala;GST cleaved; Cy3/Cy5 on C181 and C324; copies: 1;1; label: biotin on annealed DNA.
The target in series [7] is T4, D215R/G319R U2AF2^Cy3/Cy5 (residues 85-342, C305A, A181C, Q324C, labelled with Cy3/Cy5) (human, UniProt P26368-2 85-342, D215R | G319R | C305A | A181C | Q324C, Cy3- or Cy5-maleimide on the cysteines at 181 and 324 (a mixture of Cy3/Cy5 at each site)).
T4 construct: The methods print the mutant once as D215R-D319R; results, legends and discussion print D215R/G319R; also called D215R/G319R mutant; D215R-D319R-mutant U2AF2; not shown: GST, N-terminal, cleaved
The series is described as follows: single-molecule imaging (smFRET, TIRF) of labelled U2AF2 tethered to the slide through His-tagged U2AF1; His6SumoMBP-U2AF1 with bound U2AF2^Cy3/Cy5 (5 nM heterodimer) held on biotinyl-NTA(Ni2+)/neutravidin slide; 1000 nM excess U2AF1 in the buffer; no RNA; room temperature; 25 mM HEPES pH 7.0, 150 mM KCl. To be noted: both partners purified.

Series [8] has as its target T5, U2AF2^Cy3/Cy5 (residues 85-342, C305A, A181C, Q324C, labelled with Cy3/Cy5) (human, UniProt P26368-2 85-342, C305A | A181C | Q324C, Cy3- or Cy5-maleimide on the cysteines at 181 and 324 (a mixture of Cy3/Cy5 at each site)).
T5 construct: pGEX6p-1 vector, GST removed with PreScission protease; also called U2AF^65; labeled U2AF2; not shown: GST, N-terminal, cleaved
The series is described as follows: SEC; labelled U2AF2 mixed with stoichiometric His6SumoMBP-U2AF1, salt lowered to 150 mM NaCl, 25 mM HEPES pH 7.0, 3% glycerol, 0.2 mM TCEP; complex purified on Superdex-200. To be noted: both partners purified. Background: In gel filtration, larger molecules generally elute earlier.

Series [9] addresses T5, U2AF2^Cy3/Cy5 (residues 85-342, C305A, …). The series is described as follows: single-molecule imaging (smFRET, TIRF) of labelled U2AF2 tethered to the slide through His-tagged U2AF1; His6SumoMBP-U2AF1 with bound U2AF2^Cy3/Cy5 (5 nM heterodimer) held on biotinyl-NTA(Ni2+)/neutravidin slide; 1000 nM excess U2AF1 in the buffer; no RNA; room temperature; 25 mM HEPES pH 7.0, 150 mM KCl. Conditions: both partners purified.

Series [10] concerns the target T2, His6SumoMBP-U2AF1 S34F;U2AF2 Cy3/Cy5. The series is described as follows: smFRET; RNA tethered; 33% closed; Anisotropy: 150 mM NaCl, 25 mM HEPES pH 6.8, 0.5 mM TCEP, 3% glycerol, 20 uM ZnCl2, 0.2 U/ul SUPERase-In; smFRET: 25 mM HEPES pH 7.0, 150 mM KCl, 0.01% octaethylene glycol monododecyl ether, 0.2 mM TCEP, 6 mM BME, 1.5 mM Trolox, oxygen scavenger, room temperature, excess U2AF1 (1000 nM) with heterodimer. Conditions: protein: recombinant;recombinant; tags: N-terminal His6-SUMO-MBP with AAA linker; C-terminal extra Ala;GST cleaved; Cy3/Cy5 on C181 and C324; copies: 1;1; label: biotin on annealed DNA.

Series [11] concerns the target T1, His6SumoMBP-U2AF1;U2AF2 Cy3/Cy5. The series is described as follows: smFRET; RNA tethered; 66% closed; Anisotropy: 150 mM NaCl, 25 mM HEPES pH 6.8, 0.5 mM TCEP, 3% glycerol, 20 uM ZnCl2, 0.2 U/ul SUPERase-In; smFRET: 25 mM HEPES pH 7.0, 150 mM KCl, 0.01% octaethylene glycol monododecyl ether, 0.2 mM TCEP, 6 mM BME, 1.5 mM Trolox, oxygen scavenger, room temperature, excess U2AF1 (1000 nM) with heterodimer. Conditions: protein: recombinant;recombinant; tags: N-terminal His6-SUMO-MBP with AAA linker; C-terminal extra Ala;GST cleaved; Cy3/Cy5 on C181 and C324; copies: 1;1; label: biotin on annealed DNA.

Series [12] concerns the target T2, His6SumoMBP-U2AF1 S34F;U2AF2 Cy3/Cy5. The series is described as follows: smFRET; RNA tethered; same as IgM(-3C); Anisotropy: 150 mM NaCl, 25 mM HEPES pH 6.8, 0.5 mM TCEP, 3% glycerol, 20 uM ZnCl2, 0.2 U/ul SUPERase-In; smFRET: 25 mM HEPES pH 7.0, 150 mM KCl, 0.01% octaethylene glycol monododecyl ether, 0.2 mM TCEP, 6 mM BME, 1.5 mM Trolox, oxygen scavenger, room temperature, excess U2AF1 (1000 nM) with heterodimer. To be noted: protein: recombinant;recombinant; tags: N-terminal His6-SUMO-MBP with AAA linker; C-terminal extra Ala;GST cleaved; Cy3/Cy5 on C181 and C324; copies: 1;1; label: biotin on annealed DNA; stem-loop (predicted).

Series [13] concerns the target T1, His6SumoMBP-U2AF1;U2AF2 Cy3/Cy5. Briefly: smFRET; RNA tethered; more open than IgM(-3C); Anisotropy: 150 mM NaCl, 25 mM HEPES pH 6.8, 0.5 mM TCEP, 3% glycerol, 20 uM ZnCl2, 0.2 U/ul SUPERase-In; smFRET: 25 mM HEPES pH 7.0, 150 mM KCl, 0.01% octaethylene glycol monododecyl ether, 0.2 mM TCEP, 6 mM BME, 1.5 mM Trolox, oxygen scavenger, room temperature, excess U2AF1 (1000 nM) with heterodimer. To be noted: protein: recombinant;recombinant; tags: N-terminal His6-SUMO-MBP with AAA linker; C-terminal extra Ala;GST cleaved; Cy3/Cy5 on C181 and C324; copies: 1;1; label: biotin on annealed DNA; stem-loop (predicted).

T1 sequence (P26368 85-342 A181C/C305A/Q324C, one chain of several): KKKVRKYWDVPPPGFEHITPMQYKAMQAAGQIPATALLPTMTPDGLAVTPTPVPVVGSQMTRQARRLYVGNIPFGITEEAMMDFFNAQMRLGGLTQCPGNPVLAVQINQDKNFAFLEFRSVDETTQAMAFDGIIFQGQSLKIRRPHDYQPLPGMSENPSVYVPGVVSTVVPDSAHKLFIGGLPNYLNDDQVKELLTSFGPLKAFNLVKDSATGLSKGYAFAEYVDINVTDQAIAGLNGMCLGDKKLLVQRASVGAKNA
T2 sequence (P26368 85-342 A181C/C305A/Q324C, one chain of several): as above
T5 sequence (P26368 85-342 A181C/C305A/Q324C): as the sequence (P26368 85-342 A181C/C305A/Q324C, one chain of several) above
T3 sequence (P26368 113-342 A181C/C305A/Q324C): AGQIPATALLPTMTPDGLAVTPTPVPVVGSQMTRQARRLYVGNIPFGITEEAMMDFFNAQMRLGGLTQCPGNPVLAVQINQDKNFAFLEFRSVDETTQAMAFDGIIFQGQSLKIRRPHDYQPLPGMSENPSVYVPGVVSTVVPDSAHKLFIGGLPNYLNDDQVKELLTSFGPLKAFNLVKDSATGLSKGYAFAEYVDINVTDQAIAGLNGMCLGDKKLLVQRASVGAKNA
T4 sequence (P26368 85-342 A181C/D215R/C305A/G319R/Q324C): as the sequence (P26368 85-342 A181C/C305A/Q324C, one chain of several) above, with D131R, G235R counted along it

B1: AdML (ssRNA)
RNA: UCCCUUUUUUUUCCACAGCUCGCGGU
As usually defined, the Kd is the equilibrium constant for the complex coming apart. As to B1, in series [1], the Kd was about 600 nM.

B2: IgM (-3C) (structured_RNA)
RNA: UGUCUCUGUCACCUGCAGGUGAAAUG
modifications: 3' PEG18-DNA conjugate
For the molecule B2, the binding result in series [2], in [3] (stem-loop) and in [4] was “binds” each time.

B3: DEK (-3U) (ssRNA)
RNA: UACUAAAUUAAUUUCUAGAAAAGAGU
modifications: 3' PEG18-DNA conjugate
As for B3, the binding result in [3], in series [5] and in [6] was “binds” in each case.

B4: His6SumoMBP-U2AF1 (residues 1-188, C67S, C-terminal alanine) (domain or fragment, human)
chain: MAEYLASIFGTEKDKVNCSFYFKIGACRHGDRCSRLHNKPTFSQTIALLNIYRNPQNSSQSADGLRSAVSDVEMQEHYDEFFEEVFTEMEEKYGEVEEMNVCDNLGDHLVGNVYVKFRREEDAEKAVIDLNNRWFNGQPIHAELSPVTDFREACCRQYEMGECTRGGFCNFMHLKPISRELRRELYGRA
notes: C-terminal alanine added to enhance soluble protein expression; A three-alanine linker is part of the N-terminal tag; Modified pCDF-1b vector; also called U2AF^35; MBP-fused U2AF1; source: E. coli BL21(DE3), purified (HisTrap, Superdex-75 SEC); not shown: His6, N-terminal, kept; Sumo, N-terminal, kept; MBP, N-terminal, kept
With B4, the binding result in series [7] and in series [8] was “binds” each time.

B5: S34F-mutant His6SumoMBP-U2AF1 (residues 1-188, C67S, C-terminal alanine) (domain or fragment, human)
chain: MAEYLASIFGTEKDKVNCSFYFKIGACRHGDRCFRLHNKPTFSQTIALLNIYRNPQNSSQSADGLRSAVSDVEMQEHYDEFFEEVFTEMEEKYGEVEEMNVCDNLGDHLVGNVYVKFRREEDAEKAVIDLNNRWFNGQPIHAELSPVTDFREACCRQYEMGECTRGGFCNFMHLKPISRELRRELYGRA
notes: C-terminal alanine added to enhance soluble protein expression; S34F was introduced into the corresponding wild-type U2AF1 construct; three-alanine linker in the N-terminal tag as for m1; also called S34F U2AF1; S34F mutant U2AF1; source: E. coli BL21(DE3), purified by identical methods as the wild-type parent (HisTrap, Superdex-75 SEC); not shown: His6, N-terminal, kept; Sumo, N-terminal, …
Consider B5, for which the binding result in [9] is given as “binds”.

B6: FMR1 (ssRNA)
RNA: ACUUUUAACUCUCGAUAGGAACUAAU
modifications: 3' PEG18-DNA conjugate
Regarding B6, the binding result in series [10] and in series [11] was “binds” throughout.

B7: IgM(-3U) (structured_RNA)
RNA: UGUCUCUGUCACCUGUAGGUGAAAUG
modifications: 3' PEG18-DNA conjugate
B7: the binding result in [12] and in series [13] was “binds” in each case.

B8: CASP8 (ssRNA)
RNA: CCAUUUAUUUUGACUUAGAUUAUAUU
modifications: 3' PEG18-DNA conjugate
B8: the binding result in series [3] and in series [6] was “binds” in each case.
